# Target: active (cleaved) presenilin of γ-secretase, marked at the active site by the inhibitor GTB (mouse (endogenous in primary hippocampal neurons))
# Assay: proximity ligation; in situ PLA with 200 nM GTB (photoreactive biotinylated γ-secretase inhibitor, UV-irradiated, probed with streptavidin-oligonucleotide PLUS) in place of the PS antibody and mouse nicastrin-CT antibody (anti-mouse MINUS probe); fixed, 0.4% CHAPSO-permeabilised mouse primary hippocampal neurons; 10 µM L-685,458 as competitor of GTB in the control
substance,measurement,value
nicastrin (from UniProt P57716 28-708) (natural protein),PLA signals per cell,214 signals/cell
same,fold increase of PLA signals over the sum of the negative controls (first way of calculating),4.5 fold
same,fold increase of PLA signals over the sum of the negative controls (second way of calculating),4.5 fold
